This is an account of results in publication PMC8602292, “Acyl carrier protein promotes MukBEF action in Escherichia coli chromosome organization-segregation” (Nature Communications, 2021).

The assay has as its target T1, MukB^KRK (K1114E, R1122E and K1125E) (Escherichia coli, UniProt P22523 1-1486, K1114E | R1122E | K1125E).
T1 construct: E. coli MukB, triple charge-reversed mutant; source: E. coli FL01 (mukB 3xFLAG C3013I), purified (TALON, HiTrap Heparin, Superdex 200); not shown: His tag, C-terminal, kept
T1 sequence (looked up): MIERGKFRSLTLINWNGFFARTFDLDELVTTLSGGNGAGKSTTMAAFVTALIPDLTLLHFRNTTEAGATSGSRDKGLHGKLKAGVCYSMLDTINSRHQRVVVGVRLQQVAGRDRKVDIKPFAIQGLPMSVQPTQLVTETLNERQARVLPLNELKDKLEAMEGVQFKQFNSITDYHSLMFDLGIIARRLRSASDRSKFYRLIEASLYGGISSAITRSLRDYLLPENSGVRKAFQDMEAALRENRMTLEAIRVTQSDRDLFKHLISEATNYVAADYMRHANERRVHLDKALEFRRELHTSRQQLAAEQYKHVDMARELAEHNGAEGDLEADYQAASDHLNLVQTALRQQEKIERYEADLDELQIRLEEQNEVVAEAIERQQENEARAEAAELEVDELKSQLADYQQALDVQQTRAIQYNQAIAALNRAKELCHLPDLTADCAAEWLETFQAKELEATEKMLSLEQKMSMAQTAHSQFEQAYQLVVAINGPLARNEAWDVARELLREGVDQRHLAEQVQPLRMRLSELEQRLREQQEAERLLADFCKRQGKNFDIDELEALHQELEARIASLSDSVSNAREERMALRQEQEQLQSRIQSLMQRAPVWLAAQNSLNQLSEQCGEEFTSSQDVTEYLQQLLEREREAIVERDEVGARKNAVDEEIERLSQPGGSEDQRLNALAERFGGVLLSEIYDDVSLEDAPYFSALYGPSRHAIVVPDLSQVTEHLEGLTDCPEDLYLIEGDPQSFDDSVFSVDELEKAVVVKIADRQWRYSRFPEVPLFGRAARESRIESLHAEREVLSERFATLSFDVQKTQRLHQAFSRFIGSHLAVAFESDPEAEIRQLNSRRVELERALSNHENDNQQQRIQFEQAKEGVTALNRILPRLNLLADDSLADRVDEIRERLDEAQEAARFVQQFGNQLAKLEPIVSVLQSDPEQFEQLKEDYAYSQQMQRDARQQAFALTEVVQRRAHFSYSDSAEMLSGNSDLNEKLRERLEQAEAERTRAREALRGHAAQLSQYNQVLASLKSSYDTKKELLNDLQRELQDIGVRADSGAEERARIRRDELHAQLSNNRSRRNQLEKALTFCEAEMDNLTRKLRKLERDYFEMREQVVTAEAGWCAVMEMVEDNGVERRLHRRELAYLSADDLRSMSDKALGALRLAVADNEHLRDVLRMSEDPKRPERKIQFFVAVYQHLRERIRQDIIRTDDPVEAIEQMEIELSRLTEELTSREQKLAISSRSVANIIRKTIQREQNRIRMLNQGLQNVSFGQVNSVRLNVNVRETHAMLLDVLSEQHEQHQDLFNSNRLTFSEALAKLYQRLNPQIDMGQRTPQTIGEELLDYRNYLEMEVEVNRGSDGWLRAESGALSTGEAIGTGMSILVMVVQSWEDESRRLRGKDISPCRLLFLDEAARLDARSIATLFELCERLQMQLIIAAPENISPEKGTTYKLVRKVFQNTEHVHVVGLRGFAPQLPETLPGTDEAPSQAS
Put plainly: native gel or EMSA; BN-PAGE; MukB or MukB^HN (0-4.5 μM) with MukF (1.5 μM), MukE (3 μM) and AcpP as indicated or none; 1 mM DTT, 1 mM MgCl2, 30 min at 22 °C; 3-12% native Bis-Tris gels; AMPPNP in some samples. The settings on record: both partners purified. (Mobility shift assays separate free from complexed probe on a gel.)

B1: MukF (His-MukF) (natural protein, Escherichia coli, UniProt P60293 1-440, looked up)
chain: MSEFSQTVPELVAWARKNDFSISLPVDRLSFLLAVATLNGERLDGEMSEGELVDAFRHVSDAFEQTSETIGVRANNAINDMVRQRLLNRFTSEQAEGNAIYRLTPLGIGITDYYIRQREFSTLRLSMQLSIVAGELKRAADAAEEGGDEFHWHRNVYAPLKYSVAEIFDSIDLTQRLMDEQQQQVKDDIAQLLNKDWRAAISSCELLLSETSGTLRELQDTLEAAGDKLQANLLRIQDATMTHDDLHFVDRLVFDLQSKLDRIISWGQQSIDLWIGYDRHVHKFIRTAIDMDKNRVFAQRLRQSVQTYFDEPWALTYANADRLLDMRDEEMALRDEEVTGELPEDLEYEEFNEIREQLAAIIEEQLAVYKTRQVPLDLGLVVREYLSQYPRARHFDVARIVIDQAVRLGVAQADFTGLPAKWQPINDYGAKVQAHVIDKY
notes: MukF, the kleisin of Escherichia coli MukBEF; The end of the tag is read from the printed name 'His-MukF'; also called kleisin MukF; source: E. coli C3013I (NEB), pET vector, purified (TALON, HiTrap DEAE FF, Superdex 200)
Consider B1, for which the binding result is reported as “binds”.

B2: MukE (MukE-His) (natural protein, Escherichia coli, UniProt P22524 1-234, looked up)
chain: MSSTNIEQVMPVKLAQALANPLFPALDSALRSGRHIGLDELDNHAFLMDFQEYLEEFYARYNVELIRAPEGFFYLRPRSTTLIPRSVLSELDMMVGKILCYLYLSPERLANEGIFTQQELYDELLTLADEAKLLKLVNNRSTGSDVDRQKLQEKVRSSLNRLRRLGMVWFMGHDSSKFRITESVFRFGADVRAGDDPREAQRRLIRDGEAMPIENHLQLNDETEENQPDSGEEE
notes: MukE, the KITE protein of Escherichia coli MukBEF; The end of the tag is read from the printed name 'MukE-His'; also called KITE protein MukE; source: E. coli C3013I (NEB), pET vector, purified (TALON, HiTrap DEAE FF, Superdex 200)
For the molecule B2, the binding result is reported as “binds”.
